Our source for the Kd values is publication PMC10786891, “Massively parallel profiling of RNA-targeting CRISPR-Cas13d”.

Numbering of substitutions follows the chain as printed. In names and notes the source's numbering stands.

T1: EsCas13d, nuclease-dead (Eubacterium siraeum, UniProt B0MS50, R295A;H300A;R849A;H854A)
T1 sequence: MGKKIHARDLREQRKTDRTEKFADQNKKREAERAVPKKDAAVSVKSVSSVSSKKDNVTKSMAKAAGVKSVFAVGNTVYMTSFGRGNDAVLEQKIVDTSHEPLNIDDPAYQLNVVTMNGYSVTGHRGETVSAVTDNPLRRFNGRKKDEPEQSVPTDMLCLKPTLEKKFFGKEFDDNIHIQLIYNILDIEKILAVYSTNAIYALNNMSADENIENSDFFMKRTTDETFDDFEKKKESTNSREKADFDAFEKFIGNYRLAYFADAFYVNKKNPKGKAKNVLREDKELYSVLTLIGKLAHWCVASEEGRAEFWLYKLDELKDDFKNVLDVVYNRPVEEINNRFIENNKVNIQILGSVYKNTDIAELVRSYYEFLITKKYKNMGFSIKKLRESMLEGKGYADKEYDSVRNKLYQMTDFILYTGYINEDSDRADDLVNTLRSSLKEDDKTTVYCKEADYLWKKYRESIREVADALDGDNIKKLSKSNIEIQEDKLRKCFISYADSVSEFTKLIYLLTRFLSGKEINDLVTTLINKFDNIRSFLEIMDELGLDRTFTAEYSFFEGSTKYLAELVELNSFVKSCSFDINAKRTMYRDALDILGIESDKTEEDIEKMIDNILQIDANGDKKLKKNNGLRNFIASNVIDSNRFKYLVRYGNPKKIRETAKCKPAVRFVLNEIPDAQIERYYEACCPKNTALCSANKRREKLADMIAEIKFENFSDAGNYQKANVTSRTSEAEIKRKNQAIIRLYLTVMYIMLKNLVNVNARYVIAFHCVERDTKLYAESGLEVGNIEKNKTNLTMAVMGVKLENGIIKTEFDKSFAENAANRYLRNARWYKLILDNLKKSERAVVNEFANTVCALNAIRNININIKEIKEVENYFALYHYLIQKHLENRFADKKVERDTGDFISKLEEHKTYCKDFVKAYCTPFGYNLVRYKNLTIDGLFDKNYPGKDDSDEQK

B1: target 1 insG 3' of 20,insC 3' of 15 (mixed)
RNA 1: CACCCGUGCAAAAAUGCAGGGGUCUAAAACUGAGCGGAUAACCUCUCUAUGG
RNA 2: GGGAAUGGAUCCACAUCUACGAAUUCGUACCAGUAGAGCAGGUUAUCCGCUCACCGAGAUCGGAAGAGCACACGU
B2: target 1 C4A,U8G (mixed)
RNA 1: B1 RNA 1
RNA 2: GGGAAUGGAUCCACAUCUACGAAUUCGUACCAUAGAGAGGUUAGCCGAUCACCGAGAUCGGAAGAGCACACGU
B3: target 1 insG 3' of 14,insG 3' of 10 (mixed)
RNA 1: B1 RNA 1
RNA 2: GGGAAUGGAUCCACAUCUACGAAUUCGUACCAUAGAGAGGGUUGAUCCGCUCACCGAGAUCGGAAGAGCACACGU
B4: target 1 complement block 8-10 (mixed)
RNA 1: B1 RNA 1
RNA 2: B2 RNA 2 with U42A, A43U, G44A, A48C
B5: target 1 insG 3' of 18,insU 3' of 18 (mixed)
RNA 1: B1 RNA 1
RNA 2: B3 RNA 2 with A36U, G40A, U42G, G44U
B6: target 1 insA 3' of 11,insG 3' of 11 (mixed)
RNA 1: B1 RNA 1
RNA 2: B3 RNA 2 with G41U, U42A, U43G, G44U
B7: target 1 insA 3' of 11,insG 3' of 9 (mixed)
RNA 1: B1 RNA 1
RNA 2: B3 RNA 2 with G41U, U42A, G44A, A45G
B8: target 1 insA 3' of 15,insU 3' of 15 (mixed)
RNA 1: B1 RNA 1
RNA 2: B3 RNA 2 with G39U, G40A, U42G, G44U
B9: target 1 U3C,A9U (mixed)
RNA 1: B1 RNA 1
RNA 2: B2 RNA 2 with A43U, G44U, A48C, U49C
B10: target 1 insU 3' of 6,insA 3' of 2 (mixed)
RNA 1: B1 RNA 1
RNA 2: GGGAAUGGAUCCACAUCUACGAAUUCGUACCAUAGAGAGGUUAUCCUGCUCAACCGAGAUCGGAAGAGCACACGU
B11: target 1 G5C,U19A (mixed)
RNA 1: B1 RNA 1
RNA 2: B2 RNA 2 with U33A, G44U, G47C, A48C
B12: target 1 insC 3' of 15,insG 3' of 7 (mixed)
RNA 1: B1 RNA 1
RNA 2: B3 RNA 2 with A38C, G39A, G44A, A45U, U46C, C47G
B13: target 1 G5C,G13C (mixed)
RNA 1: B1 RNA 1
RNA 2: B2 RNA 2 with G39C, G44U, G47C, A48C
B14: target 1 G12A,G15A (mixed)
RNA 1: B1 RNA 1
RNA 2: B2 RNA 2 with G37A, G40A, G44U, A48C
B15: target 1 U10G,G12U (mixed)
RNA 1: B1 RNA 1
RNA 2: B2 RNA 2 with G40U, U42G, G44U, A48C
B16: target 1 insA 3' of 22,insG 3' of 6 (mixed)
RNA 1: B1 RNA 1
RNA 2: GGGAAUGGAUCCACAUCUACGAAUUCGUACACAUAGAGAGGUUAUCCGGCUCACCGAGAUCGGAAGAGCACACGU
B17: target 1 insC 3' of 20,insA 3' of 4 (mixed)
RNA 1: B1 RNA 1
RNA 2: B16 RNA 2 with A31C, C32A, A33C, G49C, C50A
B18: target 1 C6A,A9C (mixed)
RNA 1: B1 RNA 1
RNA 2: B2 RNA 2 with A43C, G44U, C46A, A48C
B19: target 1 U11G,A20U (mixed)
RNA 1: B1 RNA 1
RNA 2: B2 RNA 2 with A32U, U41G, G44U, A48C
B20: target 1 insU 3' of 6,insC 3' of 1 (mixed)
RNA 1: B1 RNA 1
RNA 2: B10 RNA 2 with A53C
B21: target 1 del13,del19 (mixed)
RNA 1: B1 RNA 1
RNA 2: GGGAAUGGAUCCACAUCUACGAAUUCGUACCAAGAGAGUUAUCCGCUCACCGAGAUCGGAAGAGCACACGU
B22: target 1 insA 3' of 2,insU 3' of 2 (mixed)
RNA 1: B1 RNA 1
RNA 2: B10 RNA 2 with U47G, G48C, C49U, U50C, C51A, A52U
B23: target 1 C6A,G15U (mixed)
RNA 1: B1 RNA 1
RNA 2: B2 RNA 2 with G37U, G44U, C46A, A48C
B24: target 1 A9G,G12A (mixed)
RNA 1: B1 RNA 1
RNA 2: B2 RNA 2 with G40A, A43G, G44U, A48C
B25: target 1 insU 3' of 18,insA 3' of 3 (mixed)
RNA 1: B1 RNA 1
RNA 2: B16 RNA 2 with A31C, C32A, A33U, U34A, A35U, G49C, C50U, U51A
B26: target 1 C2U,G13A (mixed)
RNA 1: B1 RNA 1
RNA 2: B2 RNA 2 with G39A, G44U, A48C, C50U
B27: target 1 U8A,A14G (mixed)
RNA 1: B1 RNA 1
RNA 2: B2 RNA 2 with A38G, G44A, A48C
B28: target 1 insG 3' of 8,insA 3' of 5 (mixed)
RNA 1: B1 RNA 1
RNA 2: B10 RNA 2 with C45G, U47C, C49A, U50C, C51U, A52C
B29: target 1 C2G,G15A (mixed)
RNA 1: B1 RNA 1
RNA 2: B2 RNA 2 with G37A, G44U, A48C, C50G

The target in this series is T1, EsCas13d, nuclease-dead. The series is described as follows: crRNA (strand 1, pre-loaded); Mg2+; 40 mM Tris-HCl pH 7.5, 150 mM NaCl, 6 mM MgCl2, 1 mM DTT, 0.1% Tween-20, 0.2 mg/ml BSA; 25 C; 10 min per concentration, then washed. The note with it: tags: His6-TwinStrep-SUMO cleaved; N-terminal SNAP kept (SNAP-Surface 488); label: 3' end held by stalled T7 RNA polymerase.
In general, Kd refers to a measure of binding affinity in units of concentration. The low end stands for tighter binding, the high end for weaker binding. B1 showed a dissociation constant Kd of 89 ± 33 nM. The value for B2 was 10.3 ± 0.7 nM. The same measure for B3: 16.7 ± 1 nM. B4 had a Kd of 30.9 ± 2.1 nM.

Take B5: the Kd was 68 ± 11 nM.

For the molecule B6, the affinity, expressed as Kd, was 12.4 ± 0.4 nM. Regarding B7, the Kd amounted to 23.7 ± 2 nM. The same measure for B8: 15.7 ± 1.2 nM; for B9: 44 ± 6 nM; for B10: 12.8 ± 0.8 nM.

B11 gave a Kd of 34.1 ± 3 nM. Compared with the last molecule, the Kd is about 2.7-fold higher. The same measure for B12: 17.5 ± 1.2 nM; for B13: 41 ± 5 nM; for B14: 20 ± 2.3 nM. The value for B15 was 20 ± 4 nM; that for B16 was 17.4 ± 1.6 nM; that for B17 was 6.4 ± 0.4 nM.

Molecule B18 showed a Kd of 23 ± 1.5 nM. This Kd is about 3.6-fold higher than that of the molecule before. The same measure for B19: 77 ± 24 nM; for B20: 11.7 ± 0.8 nM; for B21: 80 ± 28 nM. The value for B22 was 12 ± 0.7 nM; that for B23 was 27.5 ± 1.6 nM; that for B24 was 6.8 ± 0.5 nM. B25 had an equilibrium dissociation constant (Kd) of 20.7 ± 0.7 nM. B26 gave a Kd of 5.7 ± 0.33 nM. As to B27, the Kd was 31.1 ± 1.6 nM.

B28: the Kd turned out to be 11.5 ± 0.5 nM.

Consider B29, for which the affinity, expressed as Kd, was 14.2 ± 1.5 nM.
